The Kd is a measure of binding affinity in units of concentration. Low readings indicate a tighter complex, high ones a looser complex.

T1: TOFU-6^RRM (C. elegans, UniProt Q09293 1-99)
T1 sequence (looked up): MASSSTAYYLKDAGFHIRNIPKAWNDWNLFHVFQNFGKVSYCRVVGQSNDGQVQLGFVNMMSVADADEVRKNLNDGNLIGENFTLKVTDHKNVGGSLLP

T2: PID-1-mVenus-Strep (C. elegans, UniProt Q19541 1-169)
T2 sequence (looked up): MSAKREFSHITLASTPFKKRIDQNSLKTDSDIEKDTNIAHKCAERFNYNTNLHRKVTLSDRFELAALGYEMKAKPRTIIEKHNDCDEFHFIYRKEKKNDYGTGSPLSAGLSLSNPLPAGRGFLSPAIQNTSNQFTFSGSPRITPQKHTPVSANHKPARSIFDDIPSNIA

T3: full-length TOST-1 (TOST-1^FL) (C. elegans, UniProt Q18490 1-142)
T3 sequence (looked up): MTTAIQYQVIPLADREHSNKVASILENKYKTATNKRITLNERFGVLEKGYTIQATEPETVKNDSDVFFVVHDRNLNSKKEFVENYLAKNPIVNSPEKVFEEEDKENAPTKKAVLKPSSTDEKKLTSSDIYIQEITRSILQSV

T4: ERH-2 I81A/R83A (C. elegans, UniProt Q20057 1-113, I81A | R83A)
T4 sequence (looked up): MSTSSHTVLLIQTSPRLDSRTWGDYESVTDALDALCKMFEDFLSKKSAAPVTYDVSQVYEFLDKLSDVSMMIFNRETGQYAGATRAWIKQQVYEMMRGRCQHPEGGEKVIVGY

T5: ERH-2 W87A (C. elegans, UniProt Q20057 1-113, W87A)
T5 sequence (looked up): T4 sequence (looked up) with A81I, A83R, W87A

T6: PID-3/ERH-2 subcomplex (C. elegans, UniProt O76616 1-307; Q20057 1-113)
T6 sequence (looked up) 1: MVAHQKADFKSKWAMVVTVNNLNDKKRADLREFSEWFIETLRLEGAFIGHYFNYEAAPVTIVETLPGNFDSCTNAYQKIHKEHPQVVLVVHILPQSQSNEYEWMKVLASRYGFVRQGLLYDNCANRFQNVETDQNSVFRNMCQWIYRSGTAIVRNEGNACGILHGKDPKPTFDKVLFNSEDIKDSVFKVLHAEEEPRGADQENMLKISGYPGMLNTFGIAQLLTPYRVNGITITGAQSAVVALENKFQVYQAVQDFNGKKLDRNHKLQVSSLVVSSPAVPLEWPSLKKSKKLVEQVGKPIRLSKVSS
T6 sequence (looked up) 2: T4 sequence (looked up) with A81I, A83R

T7: TOFU-6 (C. elegans, UniProt Q09293 1-367)
T7 sequence (looked up): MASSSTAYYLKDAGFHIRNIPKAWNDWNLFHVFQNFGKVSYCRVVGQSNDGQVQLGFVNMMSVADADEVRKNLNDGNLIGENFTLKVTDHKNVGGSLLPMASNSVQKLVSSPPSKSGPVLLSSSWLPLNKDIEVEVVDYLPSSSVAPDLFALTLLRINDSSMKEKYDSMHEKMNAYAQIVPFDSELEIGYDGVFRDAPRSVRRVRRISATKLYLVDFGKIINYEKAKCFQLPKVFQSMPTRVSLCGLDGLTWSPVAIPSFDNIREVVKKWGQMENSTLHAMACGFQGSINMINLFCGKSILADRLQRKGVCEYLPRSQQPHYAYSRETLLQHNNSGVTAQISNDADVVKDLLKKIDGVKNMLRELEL

T8: TOFU-6 RRM (Caenorhabditis elegans, UniProt Q09293 1-99)
T8 sequence: T1 sequence (looked up)

B1: PID-3^RRM (domain or fragment, C. elegans, UniProt O76616 196-274, looked up)
chain: PRGADQENMLKISGYPGMLNTFGIAQLLTPYRVNGITITGAQSAVVALENKFQVYQAVQDFNGKKLDRNHKLQVSSLVV
B2: ERH-2^ΔC (domain or fragment, C. elegans, UniProt Q20057 1-99, looked up)
chain: MSTSSHTVLLIQTSPRLDSRTWGDYESVTDALDALCKMFEDFLSKKSAAPVTYDVSQVYEFLDKLSDVSMMIFNRETGQYIGRTRAWIKQQVYEMMRGR
B3: full-length ERH-2^FL (natural protein, C. elegans, UniProt Q20057 1-113, looked up)
chain: T4 sequence (looked up) with A81I, A83R
B4: ^15N-labeled full-length ERH-2 (natural protein, C. elegans)
chain: GHMASMSTSSHTVLLIQTSPRLDSRTWGDYESVTDALDALCKMFEDFLSKKSAAPVTYDVSQVYEFLDKLSDVSMMIFNRETGQYIGRTRAWIKQQVYEMMRGRCQHPEGGEKVIVGY
B5: TOST-1-mVenus-Strep (natural protein, C. elegans, UniProt Q18490 1-142, looked up)
chain: T3 sequence (looked up)
B6: PID-3 full-length (natural protein, C. elegans, UniProt O76616 1-307, looked up)
chain: T6 sequence (looked up) 1
B7: PID-3(A220E) (protein, UniProt O76616 1-307, looked up, variant A220E)
Protein pid-3: T6 sequence (looked up) 1 with A220E
B8: PID-3 (I182A and V186A) (protein, UniProt O76616 1-307, looked up, variant I182A V186A)
Protein pid-3: T6 sequence (looked up) 1 with I182A, V186A

Data set [1] has as its target T1, TOFU-6^RRM. The experiment in a line: SEC. (In gel filtration, larger molecules generally elute earlier.)
Data set [2] deals with the molecule itself. Put plainly: crystal structure.
Data set [3] has as its target T2, PID-1-mVenus-Strep. Put plainly: pull-down.
For data set [4], the target named is T3, full-length TOST-1 (TOST-1^FL). The experiment in a line: ITC. In general terms: In ITC the heat of successive injections is recorded.
For data set [5], the target named is B6. The experiment in a line: SEC.
The target of data set [6] is T4, ERH-2 I81A/R83A. The experiment in a line: pull-down.
The target in data set [7] is T5, ERH-2 W87A. The experiment in a line: pull-down.
The target in data set [8] is T3, full-length TOST-1 (TOST-1^FL). Put plainly: NMR titration.
Data set [9] addresses T6, PID-3/ERH-2 subcomplex. Put plainly: pull-down.
Data set [10] deals with T7, TOFU-6. The experiment in a line: SEC-MALS.
Data set [11] deals with the molecule itself. The experiment in a line: SEC-MALS.
The subject of data set [12] is P granules (perinuclear foci). The experiment in a line: Subcellular localization by confocal microscopy. Conditions: GFP-tagged PID-3, 25°C. The format is in vivo, C. elegans.
The test system of data set [13] is 21U RNA. The experiment in a line: 21U RNA sequencing. The class given is in vivo, C. elegans. Conditions: small RNA-seq, 20°C and 25°C, n = 3, versus wild type.
Data set [14] addresses T8, TOFU-6 RRM. Put plainly: fluorescence anisotropy.

Substitutions are numbered along the chain they refer to. Names may count otherwise. “Also recorded” adds a separate entry of the source.

On to B1, for which the binding result in data set [1] is given as “binds”. As for B2, the binding result in [2] was “binds”.

In the case of B3, the binding result in data set [3] and in data set [5] was “binds” each time. In addition, the affinity in [4], expressed as Kd, was 13 µM. For TFDKVLFNSEDIKDSVFKVLHAEEEPRGADQEN (peptide, UniProt O76616 171-203, looked up) [GST-PID-3^pep], the binding result in data set [6] and in data set [7] was “binds” throughout. As for B4, the binding result in [8] is “binds”. Take B5: the binding result in data set [9] was “binds”.

Regarding B6, the binding result in [10] and in [11] was “binds” throughout. Turning to B7, in data set [12], the subcellular localization entry is “did not form perinuclear foci”. Turning to B8, the “21U RNA levels” value in data set [13] is recorded as “temperature-sensitive effect on overall 21U RNA levels; also recorded: affect all 21U RNA species”. As for UUUUUUUUUUUUUUUU (ssRNA) [Cy5-U16], the dissociation constant (Kd) in data set [14] was approximately 60 µM.

Source of the values: publication PMC8415317 (Genes & Development, 2021).
